# Positions count from the first letter of the chain named.
# B1: anti-HER3 antibody M-08-11 (antibody, V domains shown)
# VH: QAYLQQSGAELMRPGASVRMSCQASGYTFTSYTIHWLKQTPRQGLEWIGAIYPRNGDFSYNQKFKDKASLTVDTSSSTAYMHLSSLTSEDSAVYFCARTINYGDWFAYWGQGTLVTVSA
# VL: DIQMIQSPASLFVSEGETVIITCRASENIYSNLAWYHQKKGKSPQVLVYAAIKLADGVPLRFSGSGSGTQFSLKINSLQSEDFGSYYCQHFWGPPYTFGSGTNLEIK
# notes: mouse monoclonal antibody from hybridoma, tested as hybridoma supernatant or as antibody; also called M-011
# B2: anti-HER3 antibody M-46-01 (antibody, V domains shown)
# VH: QIQLQQSGPQLVRPGASVKISCKASGYSFTSYWMHWVKQRPGRGLEWIGMIDPSDGVTRLNQKFKDKATLTVDNSSSTAYMQLSSPTSEDSAVHYCARVDVLYWYFDVWGAGTTVTVSS
# VL: DIVLTQSPASLAVSLGQRATISCRASKSISISGYSYMHWYQQKAGQPPKLLIYLTSNLESGVPARFSGSGSGTDFTLNIHPVEEEDAATYYCHHSRELPFTFGSGTKLEIK
# notes: mouse hybridoma clone
# B3: anti-HER3 antibody M-43-01 (antibody, V domains shown)
# VH: EVQLQQSGTVLARPGASVKMSCKASDYTFSNYWVHWVKQRPGQGLEWIGAIYPGNGDSTYYQKFKGKATLTAVTSTSTAYMDLSSLTNGDSAVYFCTRSGVGYNYYFDYWGQGTTLTVSS
# VL: DIQMTQSPASLSASVGETVTITCRASENIYSNLAWYQQKQGKSPQLLVYIATNLADGVPSRFSGSGSGTQFSLKINSLQPEDLGSYYCQHFYGTPFTFGTGTKLEIE
# notes: mouse hybridoma clone
# B4: anti-HER3 antibody M-17-02 (antibody, V domains shown)
# VH: EVQLQQSGTVLARPGASVKMSCKASGYSFTSYWIHWVKQRPGQGLEWIGAIYPGNSDTTYNQKFKGKAKLTAVTSASTAYMELSSLTNEDSAVYYCARTGVWTSYYFDYWGQGTTLTVSS
# VL: B3 VL with I50A, K74R, L83F, E107K
# notes: mouse hybridoma clone
# Target: T1, HER3 ECD-HRG complex (Heregulin-activated Her-3 ECD) (human, UniProt P21860 20-643)
# T1 construct: receptor-ligand complex made by preincubating HER3 ECD with a five-fold molar excess of Heregulin; also called Heregulin/Her-3 ECD; Heregulin-complexed Her-3 ECD
# Experiment: SPR, Interaction Map (TraceDrawer), two-state-kinetic no. 1, 25 C
# Procedure: A Biacore T200 instrument (GE Healthcare) was mounted with a CM5 series sensor. The sensor was normalized in HBS-ET buffer (10 mM HEPES pH 7.4, 150 mM NaCl, 3 mM EDTA, 0.05% w/v Tween 20) according to the manufacturer's instructions. The sample buffer was the system buffer supplemented with 1 mg/ml CMD (Carboxymethyldextran, Sigma #86524). The system operated at 25° C. 6500 RU RAM-Fcγ (relative units of Fcγ-fragment RamlgG, GE Healthcare) were immobilized according to the manufacturer's instructions using amine coupling EDC/NHS chemistry on all four flow cells. The sensor was deactivated using 1M ethanolamine. […] Concentration dependent kinetics were measured. […] All analytes were injected for 5 min association time and 10 min dissociation time at 100 μl/min flow rate. The sensor capture system was regenerated by a 3 min injection at 10 μl/min of 10 mM glycine pH 1.7. Where possible kinetic data was evaluated using the Biacore T200 evaluation software.
Binder,Kd [nM],Weight (contribution to the overall interaction) [%],koff [s⁻¹],kon [M⁻¹ s⁻¹]
B1,419,79,0.0799,191000
B2,356,77,0.232,652000
B3,261,69,0.141,541000

# Target: T2, TtSlyDcas-Her3
# T2 chain: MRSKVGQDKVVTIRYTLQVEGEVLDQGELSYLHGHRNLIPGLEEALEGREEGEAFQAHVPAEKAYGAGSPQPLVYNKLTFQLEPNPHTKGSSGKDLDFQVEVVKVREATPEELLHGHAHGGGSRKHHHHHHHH
# Experiment: ELISA, antigen coated, hybridoma supernatant
# Procedure: (§1) For the ELISA screening an antigen down format was used. […] Hybridoma Supernatant was added to the plates and incubated for 1 h at room temperature. Bound antibody was detected with a HRP-labeled F(ab′)₂ goat anti-mouse Fcγ (Dianova) and ABTS (Roche) was used as a HRP-substrate.
# (§2) As negative controls the scaffold proteins TtSlyDcas and TgSlyDΔIF were used.
row,Binder,OD 405 nm [OD]
1,B1,3.2
2,B2,2.56
3,B4,1.53
4,B3,3.27

# Target: T3, human recombinant HER4 Extracellular Domain (HER4 ECD) (human, UniProt Q15303 26-651)
# T3 sequence: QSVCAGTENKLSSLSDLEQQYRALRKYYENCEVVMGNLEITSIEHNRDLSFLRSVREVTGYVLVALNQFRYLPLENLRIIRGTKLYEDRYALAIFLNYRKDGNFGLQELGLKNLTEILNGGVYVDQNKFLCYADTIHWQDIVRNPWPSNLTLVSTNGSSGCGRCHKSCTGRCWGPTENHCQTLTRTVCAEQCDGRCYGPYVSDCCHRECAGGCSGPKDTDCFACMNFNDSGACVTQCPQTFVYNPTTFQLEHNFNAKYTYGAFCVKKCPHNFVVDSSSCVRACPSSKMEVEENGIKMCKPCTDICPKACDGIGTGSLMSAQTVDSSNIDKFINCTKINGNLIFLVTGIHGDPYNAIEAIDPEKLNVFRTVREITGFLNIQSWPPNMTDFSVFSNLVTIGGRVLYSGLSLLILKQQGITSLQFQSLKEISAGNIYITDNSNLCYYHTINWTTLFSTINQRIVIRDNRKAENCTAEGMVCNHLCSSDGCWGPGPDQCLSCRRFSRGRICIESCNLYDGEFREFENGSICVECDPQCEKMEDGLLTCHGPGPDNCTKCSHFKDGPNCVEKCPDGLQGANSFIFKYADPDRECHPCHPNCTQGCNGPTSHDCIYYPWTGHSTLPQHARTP
# Experiment: ELISA, antigen coated, hybridoma supernatant
# Procedure: as §1, §2
Binder,OD 405 nm [OD],binding result
B1,0.024,no binding
B2,0.032,no binding
B4,0.025,no binding
B3,0.04,no binding

# Target: T4, human recombinant HER3 Extracellular Domain (HER3 ECD) (human, UniProt P21860 20-643)
# T4 construct: 68 kDa; also called human-Her3-ECD
# Experiment: ELISA, antigen coated, hybridoma supernatant
# Procedure: as §1, §2
row,Binder,OD 405 nm [OD]
1,B1,3.15
2,B2,1.35
3,B4,2.96
4,B3,1.44

# Target: T5, TtSlyDcas
# T5 construct: negative control scaffold without the HER3 β-hairpin
# T5 chain: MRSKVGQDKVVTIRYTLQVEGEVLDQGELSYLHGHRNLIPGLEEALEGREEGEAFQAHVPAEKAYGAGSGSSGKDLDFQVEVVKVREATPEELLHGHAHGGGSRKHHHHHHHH
# Experiment: ELISA, antigen coated, hybridoma supernatant
# Procedure: as §1, §2
row,Binder,OD 405 nm [OD]
1,B1,0.038
2,B2,0.038
3,B4,0.023
4,B3,0.018

# Target: T6, TgSlyDΔIF
# T6 construct: negative control scaffold without insert (Thermococcus gammatolerans SlyD); also called TgSlyDAIF
# T6 chain: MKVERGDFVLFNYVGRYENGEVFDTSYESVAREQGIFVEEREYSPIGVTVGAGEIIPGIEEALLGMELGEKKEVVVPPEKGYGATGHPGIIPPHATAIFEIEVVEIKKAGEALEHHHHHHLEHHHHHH
# Experiment: ELISA, antigen coated, hybridoma supernatant
# Procedure: as §1, §2
row,Binder,OD 405 nm [OD]
1,B1,0.035
2,B4,0.026
3,B3,0.038

# Target: T7, TgSlyDcys-Her3
# T7 chain: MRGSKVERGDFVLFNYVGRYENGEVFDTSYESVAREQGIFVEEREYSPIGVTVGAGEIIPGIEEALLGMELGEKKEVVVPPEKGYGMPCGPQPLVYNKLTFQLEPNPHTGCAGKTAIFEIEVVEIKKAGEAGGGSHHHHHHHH
# Experiment: ELISA, antigen coated, hybridoma supernatant
# Procedure: as §1, §2
row,Binder,OD 405 nm [OD]
1,B1,3.26
2,B4,1.53
3,B3,3.15

# Target: T8, TgSlyDser-Her3
# T8 chain: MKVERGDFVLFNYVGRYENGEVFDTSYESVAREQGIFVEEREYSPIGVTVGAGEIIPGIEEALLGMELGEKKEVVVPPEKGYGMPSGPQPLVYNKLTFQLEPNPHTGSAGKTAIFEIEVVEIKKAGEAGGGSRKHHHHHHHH
# Experiment: ELISA, antigen coated, hybridoma supernatant
# Procedure: as §1, §2
row,Binder,OD 405 nm [OD]
1,B1,3.11
2,B4,1.57
3,B3,3.44

# Target: human HER2 Extracellular Domain (HER2 ECD) (human, UniProt P04626 23-652)
# Experiment: ELISA, antigen coated, hybridoma supernatant
# Procedure: as §1, §2
Binder,OD 405 nm [OD],binding result
B1,0.025,no binding
B2,0.04,no binding
B4,0.03,no binding
B3,0.045,no binding

# Target: T9, human HER1 Extracellular Domain (HER1 ECD) (human, UniProt P00533 25-645)
# T9 construct: also called EGFR ECD
# Experiment: ELISA, antigen coated, hybridoma supernatant
# Procedure: as §1, §2
Binder,OD 405 nm [OD],binding result
B1,0.06,no binding
B2,0.043,no binding
B4,0.028,no binding
B3,0.043,no binding

# Reference: patent US20180094062A1 (Hoffmann-La Roche, published 2018)
